The results in this text go back to US11702469B2, “Recombinant EGFL7, EGFL7 antibodies, and uses thereof” (Ohio State Innovation Foundation, priority 2017, dated 2023).

The test system of test [1] is AML cell lines. In words: Differentiation (CD11b expression) in AML cell lines. The class given is cell-based, human. To be noted: vs IgG-treated controls. As for the experimental part: FIG. 10. Induced differentiation in AML cell lines treated with anti-EGFL7. Differentiation analysis was evaluated by CD11b expression. CD11b is depicted as the ratio of the CD11b expression value in the @E7 treated samples to CD11b expression value of the IgG-treated controls. * indicates P<0.05, ** indicates P<0.01.
For the evaluation of apoptosis, cells were stained with Annexin V and 7-AAD as previously described^16, 21 For the evaluation of cell proliferation, AML cell lines were incubated with BrdU, fixed, permeabilized and stained with APC-conjugated anti-BrdU antibody, according to the instructions of the manufacturer (BD Biosciences) and as previously described^16, 21 The proliferating fraction of the cells (i.e., the BrdU positive cells) was evaluated with flow cytometry (LSRII, BD Biosciences). For cell differentiation analysis, cells were stained with an anti-CD11B antibody (BD Biosciences) and analyzed by flow cytometry.

Test [2] deals with HES1. In words: DLL4-Fc coated plate NOTCH activation (HES1 qRT-PCR), THP-1. As to conditions: pre-treated 30 min: 10 μM AVA, 100 μg/ml anti-EGFL7 or 0.25 μM rEGFL7; then 4 h; vs DLL4-FC. In kind it is cell-based, human. The method, then: FIG. 24A-24G. EGFL7 prevents activation of NOTCH signaling in AML cells. (FIG. 24A) Overview of experiments using DLL4-FC and IgG-FC control coated plates to induce NOTCH activation. (FIG. 24B) THP-1 cells were pre-treated with 10 μM γ-secretase inhibitor (AVA), 100 μg/ml anti-EGFL7 antibody or 0.25 μM rEGFL7 for 30 min, then transferred to IgG-Fc or DLL4-Fc coated plates. After 4 h of incubation total RNA from THP-1 cells was extracted for qRT-PCR analysis of HES1 with β-ACTIN as internal control. ^###P<0.001 DLL4-FC vs IgG-FC; ***P<0.001 DLL4+AVA, DLL4+rEGFL7, and DLL4+anti-EGFL7 vs DLL4-FC. (FIG. 24C) Primary AML blasts were pretreated with 10 μM γ-secretase inhibitor (AVA), 100 μg/ml anti-EGFL7 antibody or 0.25 μM rEGFL7 for 30 min, then transferred to IgG-Fc or DLL4-Fc coated plates. After 4 h of incubation, total RNA was extracted for RT-PCR analysis of HES1 mRNA with β-ACTIN as internal control. ^###P<0.001 DLL4-Fc vs IgG-Fc; *P<0.05, ***P<0.001 vs DLL4 Fc. THP-1 cells were treated with the indicated concentration of anti-EGFL7 (@E7) then assessed for apoptosis using (FIG. 24D) AnnexinV+ staining and FACS; *P<0.05 (FIG. 24E) Immuno-blotting for PARP1 and Casp3 cleavage. (FIG. 24F) Cell differentiation was assessed by CD11B and CD14 staining 96-hours post anti-EGFL7 treatments; *P<0.05. (FIG. 24G) To determine whether activation of NOTCH by DLL4-Fc could be accentuated by anti-EGFL7 treatment, THP-1 cells were first treated with anti-EGFL7 (100 μg/ml) and then cultured on DLL4-FC or IgG-Fc coated plates and then assessed for apoptosis using AnnexinV+ staining and FACS. *P<0.05 DLL4-Fc and anti-EGFL7; vs DLL4-FC+anti-EGFL7.
Total RNA was extracted using Trizol reagent (Invitrogen, Carlsbad, Calif., USA). cDNA was synthesized using SuperScript III reagents (Invitrogen) according to the manufacturer's instruction. Quantitative Real-Time RT-PCR was performed using commercially available TaqMan Gene Expression Assay primers and the 7900HT Fast Real-Time PCR System (Applied Biosystems, Foster City, Calif., USA). […]

In test [3] the test system is human AML blasts. In words: CFU assay, blasts of AML patients. The class given is cell-based. The method, then: FIG. 4A-4E. EGFL7 stimulates the proliferation of human and mouse acute myeloid leukemia (AML cells). Bone marrow cells from wild-type (WT) mice (FIG. 4A), and Mll^PTD/WTFlt3^ITD/WT mice (FIG. 4B), were treated without (Unstim) or with 0.1, 0.25, or 0.5 μM recombinant mouse Egfl7 (rEgfl7) in IMDM medium+2% bovine serum albumin (BSA) for 24, 48, 72 and 96 hours. At the indicated time points, the number of viable cells was determined by trypan blue dye exclusion assay. Each condition was repeated in triplicate. NS indicates not significant, * indicates P<0.05, ** indicates P<0.01. (FIG. 4C). […] The colonies with more than 50 cells were enumerated using a light microscope. Each condition for each patient (n=4) was plated in triplicate, ** indicates P<0.01, *** indicates P<0.001. (FIG. 4D) Blasts from AML patients (n=4) were cultured in SFEM+2% BSA in the absence or presence of 0.25 μM rEGFL7 for 20 min. Total proteins were extracted for immunoblotting of phosphorylated AKT-S473 (pAKT-S473), total AKT and GAPDH. (FIG. 4E) AML blasts from Mll^PTD/WTFlt3^ITD/WT mice (n=3) were cultured in IMDM medium+2% BSA in the absence or presence of […] recombinant rEgfl7 for 20 min. […]
FIG. 5. […] The number of colonies with more than 50 cells was counted under a light microscope. […]
Colonies with more than 50 cells were counted using a light microscope. […]

B1: Parsatuzumab: Anti-human EGFL7 therapeutic antibody (Parsatuzumab) obtained from Creative Biolabs; blocking monoclonal antibody (antibody, chains of the INN, looked up, V domains shown)
VH: EVQLVESGGGLVQPGGSLRLSCAASGYTFIDYYMNWVRQAPGKGLEWVGDINLDNSGTHYNQKFKGRFTISRDKSKNTAYLQMNSLRAEDTAVYYCAREGVYHDYDDYAMDYWGQGTLVTVSS
VL: DIQMTQSPSSLSASVGDRVTITCRTSQSLVHINAITYLHWYQQKPGKAPKLLIYRVSNRFSGVPSRFSGSGSGTDFTLTISSLQPEDFATYYCGQSTHVPLTFGQGTKVEIK
In the case of B1, the “differentiation (CD11b expression)” value in test [1] is “increased differentiation”. Moreover, the “DLL4-Fc-mediated NOTCH activation (HES1)” value in test [2] is listed as “enhanced”. The “cell growth (numbers of formed colonies in CFU assays)” value in test [3] (2, 10, 50, or 250 μg/ml for 2 h, then 10 days, vs normal IgG) was “significant decreases in cell growth”. Besides, the “blast growth (number of CFUs)” value in test [3] (increasing concentrations for 4 hours, then 10 days in methylcellulose, n=4, vs IGg1 control) is on record as “dose dependent decrease in blast growth”.
